Experimental data reported in publication PMC3486956.

Molecular target: aggregated glucose-6-phosphate dehydrogenase (G6PDH) from Leuconostoc mesenteroides (Leuconostoc mesenteroides) (UniProt P11411)
Experiment: retention with aggregates on a 0.1-μm filter, SDS-PAGE

UniProt P11411, sequence (P11411 whole entry): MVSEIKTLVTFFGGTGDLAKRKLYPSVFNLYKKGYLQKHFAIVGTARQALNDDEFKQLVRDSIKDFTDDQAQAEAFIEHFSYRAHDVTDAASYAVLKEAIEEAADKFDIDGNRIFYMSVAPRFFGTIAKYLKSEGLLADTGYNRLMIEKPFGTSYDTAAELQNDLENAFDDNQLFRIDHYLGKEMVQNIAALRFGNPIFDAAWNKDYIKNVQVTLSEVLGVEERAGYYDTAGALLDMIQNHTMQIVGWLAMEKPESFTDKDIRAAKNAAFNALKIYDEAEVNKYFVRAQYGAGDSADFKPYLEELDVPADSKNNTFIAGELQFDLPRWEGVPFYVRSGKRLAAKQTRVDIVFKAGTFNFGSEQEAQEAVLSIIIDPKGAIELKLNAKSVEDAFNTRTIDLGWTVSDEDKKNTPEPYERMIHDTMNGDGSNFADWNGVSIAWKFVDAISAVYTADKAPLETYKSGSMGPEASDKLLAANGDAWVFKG

Substance	decrease of the amount bound compared to wt ClpB
ClpB 2P (GG motif converted into PP) (from UniProt P63284 1-857) (natural protein)	50%
ClpB 4G (four Gly inserted in the N-terminal linker) (from UniProt P63284 1-857) (natural protein)	50%
